These results are taken from PMC6602413.

Data set [1] deals with T1, Strep-RapZ (Escherichia coli (K-12?)) (UniProt P0A894).
T1 sequence: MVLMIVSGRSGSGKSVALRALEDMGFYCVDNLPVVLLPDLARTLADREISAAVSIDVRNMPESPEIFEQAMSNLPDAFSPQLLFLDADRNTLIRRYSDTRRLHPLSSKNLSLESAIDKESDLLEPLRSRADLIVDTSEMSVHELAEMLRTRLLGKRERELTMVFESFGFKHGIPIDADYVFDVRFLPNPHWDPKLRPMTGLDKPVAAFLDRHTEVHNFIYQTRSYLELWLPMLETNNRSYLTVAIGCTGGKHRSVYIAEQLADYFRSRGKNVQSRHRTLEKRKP
Kind of data set: EMSA. Particulars: 10 mM Tris-HCl pH 7.0, 100 mM KCl, 10 mM MgCl2, 1 ug yeast tRNA per 10 ul, 30 min at 30 C (competition 15 + 15 min); native 6% PAGE at 4 C.

In data set [2] the target is T1, Strep-RapZ (Escherichia coli (K-12?)). Kind of data set: competition. The conditions noted are these: 10 mM Tris-HCl pH 7.0, 100 mM KCl, 10 mM MgCl2, 1 ug yeast tRNA per 10 ul, 30 min at 30 C (competition 15 + 15 min); native 6% PAGE at 4 C.

Regarding “GGGAGAGUAGAUGCUCAUUCCAUCUCUUAUGUUCGCCUUAGUGCCUCAUAAACUCCGGAAUGACGCAGAGCCGUUUACGGUGCUUAUCGUCCACUGACAGAUGUCGCUUAUGCCUCAUCAGACACCAUGGACACAACGUUGAGUGAAGCACCCACUUGUUG [GlmZ* (processed GlmZ)]”, the binding entry in data set [1] and in data set [2] was “binds” each time.
As for “GGGAGAGUAGAUGCUCAUUCCAUCUCUUAUGUUCGCCUUAGUGCCUCAUAAACUCCGGAAUGACGCAGAGCCGUUUACGGUGCUUAUCGUCCACUGACAGAUGUCGCUUAUGCCUCAUCAGACACCAUGGACACAACGUUGAGUGAAGCACCCACUUGUUGUCAUACAGACCUGUUUUAACGCCUGCUCCGUAAUAAGAGCAGGCGUUUUUUU [GlmZ full-length]”, the binding entry in data set [1] and in data set [2] was “binds” each time.
